We go through 23 molecules from PMC10786891, “Massively parallel profiling of RNA-targeting CRISPR-Cas13d”.

T1: EsCas13d, nuclease-dead (Eubacterium siraeum, UniProt B0MS50, R295A;H300A;R849A;H854A)
T1 sequence: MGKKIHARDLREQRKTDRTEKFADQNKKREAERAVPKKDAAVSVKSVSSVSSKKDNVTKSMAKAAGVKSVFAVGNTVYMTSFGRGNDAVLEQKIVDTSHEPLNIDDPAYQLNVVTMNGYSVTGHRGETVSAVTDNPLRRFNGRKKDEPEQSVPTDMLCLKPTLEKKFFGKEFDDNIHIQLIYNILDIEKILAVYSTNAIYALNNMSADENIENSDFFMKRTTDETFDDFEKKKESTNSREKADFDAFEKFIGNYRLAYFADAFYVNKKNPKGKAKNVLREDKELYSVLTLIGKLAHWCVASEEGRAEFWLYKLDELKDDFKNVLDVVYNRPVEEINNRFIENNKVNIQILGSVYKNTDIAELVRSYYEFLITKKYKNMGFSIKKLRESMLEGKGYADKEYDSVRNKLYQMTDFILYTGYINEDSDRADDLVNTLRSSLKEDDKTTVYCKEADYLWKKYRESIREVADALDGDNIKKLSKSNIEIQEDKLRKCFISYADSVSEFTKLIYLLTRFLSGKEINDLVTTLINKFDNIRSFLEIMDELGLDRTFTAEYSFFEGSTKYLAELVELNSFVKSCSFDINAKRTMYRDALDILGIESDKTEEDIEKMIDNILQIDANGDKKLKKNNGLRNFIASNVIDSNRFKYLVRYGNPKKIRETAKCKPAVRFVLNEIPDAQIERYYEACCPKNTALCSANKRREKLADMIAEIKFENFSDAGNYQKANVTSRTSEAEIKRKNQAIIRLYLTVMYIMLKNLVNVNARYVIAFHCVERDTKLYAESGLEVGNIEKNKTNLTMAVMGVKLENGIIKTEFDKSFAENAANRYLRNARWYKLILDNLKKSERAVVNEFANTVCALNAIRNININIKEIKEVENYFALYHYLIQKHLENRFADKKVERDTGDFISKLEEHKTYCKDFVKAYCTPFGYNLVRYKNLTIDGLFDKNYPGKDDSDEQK

B1: target 1 U8C,A18C (mixed)
RNA 1: CACCCGUGCAAAAAUGCAGGGGUCUAAAACUGAGCGGAUAACCUCUCUAUGG
RNA 2: GGGAAUGGAUCCACAUCUACGAAUUCGUACCAUCGAGAGGUUACCCGCUCACCGAGAUCGGAAGAGCACACGU
B2: target 1 insG 3' of 20,insU 3' of 2 (mixed)
RNA 1: CACCCGUGCAAAAAUGCAGGGGUCUAAAACUGAGCGGAUAACCUCUCUAUGG
RNA 2: GGGAAUGGAUCCACAUCUACGAAUUCGUACCAGUAGAGAGGUUAUCCGCUCUACCGAGAUCGGAAGAGCACACGU
B3: target 1 insA 3' of 22,insC 3' of 11 (mixed)
RNA 1: CACCCGUGCAAAAAUGCAGGGGUCUAAAACUGAGCGGAUAACCUCUCUAUGG
RNA 2: GGGAAUGGAUCCACAUCUACGAAUUCGUACACAUAGAGAGGUCUAUCCGCUCACCGAGAUCGGAAGAGCACACGU
B4: target 1 insU 3' of 22,insA 3' of 8 (mixed)
RNA 1: CACCCGUGCAAAAAUGCAGGGGUCUAAAACUGAGCGGAUAACCUCUCUAUGG
RNA 2: GGGAAUGGAUCCACAUCUACGAAUUCGUACUCAUAGAGAGGUUAUACCGCUCACCGAGAUCGGAAGAGCACACGU
B5: target 1 insA 3' of 22,insG 3' of 18 (mixed)
RNA 1: CACCCGUGCAAAAAUGCAGGGGUCUAAAACUGAGCGGAUAACCUCUCUAUGG
RNA 2: GGGAAUGGAUCCACAUCUACGAAUUCGUACACAUAGGAGAGGUUAUCCGCUCACCGAGAUCGGAAGAGCACACGU
B6: target 1 A1G,A16C (mixed)
RNA 1: CACCCGUGCAAAAAUGCAGGGGUCUAAAACUGAGCGGAUAACCUCUCUAUGG
RNA 2: GGGAAUGGAUCCACAUCUACGAAUUCGUACCAUAGCGAGGUUAUCCGCUCGCCGAGAUCGGAAGAGCACACGU
B7: target 1 A16U,C21U (mixed)
RNA 1: CACCCGUGCAAAAAUGCAGGGGUCUAAAACUGAGCGGAUAACCUCUCUAUGG
RNA 2: GGGAAUGGAUCCACAUCUACGAAUUCGUACUAUAGUGAGGUUAUCCGCUCACCGAGAUCGGAAGAGCACACGU
B8: target 1 C2U,C6U (mixed)
RNA 1: CACCCGUGCAAAAAUGCAGGGGUCUAAAACUGAGCGGAUAACCUCUCUAUGG
RNA 2: GGGAAUGGAUCCACAUCUACGAAUUCGUACCAUAGAGAGGUUAUCUGCUUACCGAGAUCGGAAGAGCACACGU
B9: target 1 G12U,U19A (mixed)
RNA 1: CACCCGUGCAAAAAUGCAGGGGUCUAAAACUGAGCGGAUAACCUCUCUAUGG
RNA 2: GGGAAUGGAUCCACAUCUACGAAUUCGUACCAAAGAGAGUUUAUCCGCUCACCGAGAUCGGAAGAGCACACGU
B10: target 1 C22A (mixed)
RNA 1: CACCCGUGCAAAAAUGCAGGGGUCUAAAACUGAGCGGAUAACCUCUCUAUGG
RNA 2: GGGAAUGGAUCCACAUCUACGAAUUCGUAACAUAGAGAGGUUAUCCGCUCACCGAGAUCGGAAGAGCACACGU
B11: target 1 C6A,G15A (mixed)
RNA 1: CACCCGUGCAAAAAUGCAGGGGUCUAAAACUGAGCGGAUAACCUCUCUAUGG
RNA 2: GGGAAUGGAUCCACAUCUACGAAUUCGUACCAUAGAAAGGUUAUCAGCUCACCGAGAUCGGAAGAGCACACGU
B12: target 1 U3A,C4G (mixed)
RNA 1: CACCCGUGCAAAAAUGCAGGGGUCUAAAACUGAGCGGAUAACCUCUCUAUGG
RNA 2: GGGAAUGGAUCCACAUCUACGAAUUCGUACCAUAGAGAGGUUAUCCGGACACCGAGAUCGGAAGAGCACACGU
B13: target 1 G17U,C21A (mixed)
RNA 1: CACCCGUGCAAAAAUGCAGGGGUCUAAAACUGAGCGGAUAACCUCUCUAUGG
RNA 2: GGGAAUGGAUCCACAUCUACGAAUUCGUACAAUAUAGAGGUUAUCCGCUCACCGAGAUCGGAAGAGCACACGU
B14: target 1 insC 3' of 22,insA 3' of 21 (mixed)
RNA 1: CACCCGUGCAAAAAUGCAGGGGUCUAAAACUGAGCGGAUAACCUCUCUAUGG
RNA 2: GGGAAUGGAUCCACAUCUACGAAUUCGUACCCAAUAGAGAGGUUAUCCGCUCACCGAGAUCGGAAGAGCACACGU
B15: target 1 insA 3' of 12,insA 3' of 10 (mixed)
RNA 1: CACCCGUGCAAAAAUGCAGGGGUCUAAAACUGAGCGGAUAACCUCUCUAUGG
RNA 2: GGGAAUGGAUCCACAUCUACGAAUUCGUACCAUAGAGAGGAUUAAUCCGCUCACCGAGAUCGGAAGAGCACACGU
B16: target 1 insA 3' of 12,insU 3' of 6 (mixed)
RNA 1: CACCCGUGCAAAAAUGCAGGGGUCUAAAACUGAGCGGAUAACCUCUCUAUGG
RNA 2: GGGAAUGGAUCCACAUCUACGAAUUCGUACCAUAGAGAGGAUUAUCCUGCUCACCGAGAUCGGAAGAGCACACGU
B17: target 1 A1U,A16C (mixed)
RNA 1: CACCCGUGCAAAAAUGCAGGGGUCUAAAACUGAGCGGAUAACCUCUCUAUGG
RNA 2: GGGAAUGGAUCCACAUCUACGAAUUCGUACCAUAGCGAGGUUAUCCGCUCUCCGAGAUCGGAAGAGCACACGU
B18: target 1 insG 3' of 22,insU 3' of 1 (mixed)
RNA 1: CACCCGUGCAAAAAUGCAGGGGUCUAAAACUGAGCGGAUAACCUCUCUAUGG
RNA 2: GGGAAUGGAUCCACAUCUACGAAUUCGUACGCAUAGAGAGGUUAUCCGCUCAUCCGAGAUCGGAAGAGCACACGU
B19: target 1 A16C (mixed)
RNA 1: CACCCGUGCAAAAAUGCAGGGGUCUAAAACUGAGCGGAUAACCUCUCUAUGG
RNA 2: GGGAAUGGAUCCACAUCUACGAAUUCGUACCAUAGCGAGGUUAUCCGCUCACCGAGAUCGGAAGAGCACACGU
B20: target 1 complement block 4-8 (mixed)
RNA 1: CACCCGUGCAAAAAUGCAGGGGUCUAAAACUGAGCGGAUAACCUCUCUAUGG
RNA 2: GGGAAUGGAUCCACAUCUACGAAUUCGUACCAUAGAGAGGUUAAGGCGUCACCGAGAUCGGAAGAGCACACGU
B21: target 1 insG 3' of 22,insG 3' of 1 (mixed)
RNA 1: CACCCGUGCAAAAAUGCAGGGGUCUAAAACUGAGCGGAUAACCUCUCUAUGG
RNA 2: GGGAAUGGAUCCACAUCUACGAAUUCGUACGCAUAGAGAGGUUAUCCGCUCAGCCGAGAUCGGAAGAGCACACGU
B22: target 1 A1U,C22A (mixed)
RNA 1: CACCCGUGCAAAAAUGCAGGGGUCUAAAACUGAGCGGAUAACCUCUCUAUGG
RNA 2: GGGAAUGGAUCCACAUCUACGAAUUCGUAACAUAGAGAGGUUAUCCGCUCUCCGAGAUCGGAAGAGCACACGU
B23: target 1 U3A,A16G (mixed)
RNA 1: CACCCGUGCAAAAAUGCAGGGGUCUAAAACUGAGCGGAUAACCUCUCUAUGG
RNA 2: GGGAAUGGAUCCACAUCUACGAAUUCGUACCAUAGGGAGGUUAUCCGCACACCGAGAUCGGAAGAGCACACGU

The target of this data set is T1, EsCas13d, nuclease-dead. Kind of data set: crRNA (strand 1, pre-loaded); Mg2+; 40 mM Tris-HCl pH 7.5, 150 mM NaCl, 6 mM MgCl2, 1 mM DTT, 0.1% Tween-20, 0.2 mg/ml BSA; 25 C; 10 min per concentration, then washed. Particulars: tags: His6-TwinStrep-SUMO cleaved; N-terminal SNAP kept (SNAP-Surface 488); label: 3' end held by stalled T7 RNA polymerase.
As usually defined, the Kd is a measure of binding affinity in units of concentration. The low end stands for tighter binding, the high end for weaker binding. Molecule B1 gave a Kd of 89 ± 9 nM. With B2 the figure was around 60 nM.

Take B3: the Kd amounted to 60 ± 19 nM.

For B4, the equilibrium dissociation constant (Kd) worked out at 58 ± 5 nM.

The molecule B5 had a Kd of 59 ± 13 nM. Take B6: the Kd amounted to 36 ± 4 nM. Regarding B7, the Kd stood at 11.7 ± 1.4 nM.

B8 had a Kd of 8.3 ± 0.6 nM. The Kd values of the last two molecules are within 1.5-fold of each other. B9 gave an equilibrium dissociation constant (Kd) of 52 ± 10 nM. B10 gave a Kd of 13.5 ± 0.7 nM. Regarding B11, binding was characterised by a dissociation constant (Kd) of 11.9 ± 0.5 nM. With B12, the affinity, expressed as Kd, was 5.74 ± 0.33 nM. In turn, B13 displayed a Kd of 40 ± 7 nM. Against the preceding molecule, the Kd is about 7-fold higher.

Molecule B14 showed a dissociation constant (Kd) of 20.7 ± 2.3 nM. B15: the Kd came out at 32 ± 7 nM.

Consider B16, for which binding was characterised by a dissociation constant (Kd) of 64 ± 14 nM. Molecule B17 had a dissociation constant Kd of 37 ± 4 nM. Regarding B18, binding was put at a Kd of 31 ± 4 nM. With B19, the Kd was found to be 31 ± 2.7 nM. Take B20: the Kd worked out at 9.57 ± 0.27 nM. B21: the equilibrium dissociation constant (Kd) was 26.6 ± 2.1 nM. On to B22, for which binding was characterised by a dissociation constant (Kd) of 12.1 ± 0.9 nM.

In turn, B23 showed a Kd of 34.3 ± 2.9 nM.
